T1: FcγRIIb (human, UniProt P31994 43-217)
T1 construct: extracellular domain; also called FcgRIIb; 2b; not shown: His tag at the C terminus
T1 sequence (looked up): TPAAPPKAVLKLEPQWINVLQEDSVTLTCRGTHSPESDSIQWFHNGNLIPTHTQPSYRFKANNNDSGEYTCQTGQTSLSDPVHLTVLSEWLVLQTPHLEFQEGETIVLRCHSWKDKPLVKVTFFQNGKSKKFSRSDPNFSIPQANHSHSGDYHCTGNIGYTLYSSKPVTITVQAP

B1: GpH7-B3 variant S324_09D/GpL16-k0 (homodimerized antibody, Ho Ab) (antibody, human IgG1, kappa)
heavy: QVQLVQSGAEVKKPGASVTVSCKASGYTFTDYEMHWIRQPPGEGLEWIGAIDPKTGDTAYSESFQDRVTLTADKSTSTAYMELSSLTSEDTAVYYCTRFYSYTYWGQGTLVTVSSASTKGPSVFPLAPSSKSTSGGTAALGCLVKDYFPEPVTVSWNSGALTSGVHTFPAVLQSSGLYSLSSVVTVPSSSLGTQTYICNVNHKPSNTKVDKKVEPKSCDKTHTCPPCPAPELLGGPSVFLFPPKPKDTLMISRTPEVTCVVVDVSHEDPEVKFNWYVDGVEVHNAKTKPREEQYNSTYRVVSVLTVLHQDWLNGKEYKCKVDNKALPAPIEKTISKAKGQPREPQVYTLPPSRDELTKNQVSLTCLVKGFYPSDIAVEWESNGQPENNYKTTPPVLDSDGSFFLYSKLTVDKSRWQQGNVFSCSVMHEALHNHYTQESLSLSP
light: DIVMTQSPLSLPVTPGEPASISCQASESLVHSNRNTYLHWYLQKPGQSPQLLIYKVSNRFSGVPDRFSGSGSGTDFTLKISRVEAEDVGVYYCSQNTHVPPTFGQGTKVEIERTVAAPSVFIFPPSDEQLKSGTASVVCLLNNFYPREAKVQWKVDNALQSGNSQESVTEQDSKDSTYSLSSTLTLSKADYEKHKVYACEVTHQGLSSPVTKSFNRGEC
notes: Mutation in both H chains; also called S324_09D Ho Ab
B2: GpH7-B3 variant T335_09D/GpL16-k0 (homodimerized antibody, Ho Ab) (antibody, human IgG1, kappa)
heavy: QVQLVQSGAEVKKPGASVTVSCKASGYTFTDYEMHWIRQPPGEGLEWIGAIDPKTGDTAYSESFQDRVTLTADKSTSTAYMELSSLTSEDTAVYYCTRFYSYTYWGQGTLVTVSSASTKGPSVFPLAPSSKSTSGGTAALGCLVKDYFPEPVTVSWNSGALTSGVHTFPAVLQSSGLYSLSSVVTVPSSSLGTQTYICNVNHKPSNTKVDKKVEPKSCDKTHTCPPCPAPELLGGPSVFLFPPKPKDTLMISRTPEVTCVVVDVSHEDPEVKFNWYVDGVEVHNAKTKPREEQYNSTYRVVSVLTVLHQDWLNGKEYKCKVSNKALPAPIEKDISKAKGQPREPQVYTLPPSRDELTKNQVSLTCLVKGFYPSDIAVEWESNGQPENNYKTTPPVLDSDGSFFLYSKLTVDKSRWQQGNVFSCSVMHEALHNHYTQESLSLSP
light: DIVMTQSPLSLPVTPGEPASISCQASESLVHSNRNTYLHWYLQKPGQSPQLLIYKVSNRFSGVPDRFSGSGSGTDFTLKISRVEAEDVGVYYCSQNTHVPPTFGQGTKVEIERTVAAPSVFIFPPSDEQLKSGTASVVCLLNNFYPREAKVQWKVDNALQSGNSQESVTEQDSKDSTYSLSSTLTLSKADYEKHKVYACEVTHQGLSSPVTKSFNRGEC
notes: Mutation in both H chains; also called T335_09D Ho Ab
B3: GpH7-B3 variant T335_05P/GpL16-k0 (homodimerized antibody, Ho Ab) (antibody, human IgG1, kappa)
heavy: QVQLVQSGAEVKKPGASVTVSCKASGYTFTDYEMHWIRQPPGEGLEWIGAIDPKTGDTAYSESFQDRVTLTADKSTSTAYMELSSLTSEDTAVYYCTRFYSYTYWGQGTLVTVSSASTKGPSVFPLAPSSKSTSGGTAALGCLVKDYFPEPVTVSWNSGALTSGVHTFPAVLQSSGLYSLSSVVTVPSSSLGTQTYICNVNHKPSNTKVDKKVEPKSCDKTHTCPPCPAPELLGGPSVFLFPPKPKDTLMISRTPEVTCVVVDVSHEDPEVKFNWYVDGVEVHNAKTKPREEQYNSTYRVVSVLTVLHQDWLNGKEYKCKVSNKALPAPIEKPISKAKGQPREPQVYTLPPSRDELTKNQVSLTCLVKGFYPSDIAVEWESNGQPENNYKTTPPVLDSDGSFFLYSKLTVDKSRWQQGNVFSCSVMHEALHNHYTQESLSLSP
light: DIVMTQSPLSLPVTPGEPASISCQASESLVHSNRNTYLHWYLQKPGQSPQLLIYKVSNRFSGVPDRFSGSGSGTDFTLKISRVEAEDVGVYYCSQNTHVPPTFGQGTKVEIERTVAAPSVFIFPPSDEQLKSGTASVVCLLNNFYPREAKVQWKVDNALQSGNSQESVTEQDSKDSTYSLSSTLTLSKADYEKHKVYACEVTHQGLSSPVTKSFNRGEC
notes: Mutation in both H chains; also called T335_05P Ho Ab
B4: GpH7-B3 variant T335_08L/GpL16-k0 (homodimerized antibody, Ho Ab) (antibody, human IgG1, kappa)
heavy: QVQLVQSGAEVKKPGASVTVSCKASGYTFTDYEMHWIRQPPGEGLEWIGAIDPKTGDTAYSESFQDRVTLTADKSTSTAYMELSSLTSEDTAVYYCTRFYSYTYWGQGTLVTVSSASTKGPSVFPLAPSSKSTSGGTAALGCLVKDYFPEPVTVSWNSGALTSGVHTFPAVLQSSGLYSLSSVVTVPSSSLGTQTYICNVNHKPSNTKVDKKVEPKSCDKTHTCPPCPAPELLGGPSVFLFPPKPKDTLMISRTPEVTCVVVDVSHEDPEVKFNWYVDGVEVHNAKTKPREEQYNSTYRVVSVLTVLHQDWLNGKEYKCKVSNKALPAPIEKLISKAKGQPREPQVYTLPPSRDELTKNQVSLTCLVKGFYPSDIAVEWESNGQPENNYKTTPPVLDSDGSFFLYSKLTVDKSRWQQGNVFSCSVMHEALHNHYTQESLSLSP
light: DIVMTQSPLSLPVTPGEPASISCQASESLVHSNRNTYLHWYLQKPGQSPQLLIYKVSNRFSGVPDRFSGSGSGTDFTLKISRVEAEDVGVYYCSQNTHVPPTFGQGTKVEIERTVAAPSVFIFPPSDEQLKSGTASVVCLLNNFYPREAKVQWKVDNALQSGNSQESVTEQDSKDSTYSLSSTLTLSKADYEKHKVYACEVTHQGLSSPVTKSFNRGEC
notes: Mutation in both H chains; also called T335_08L Ho Ab
B5: GpH7-B3 variant S337_16H/GpL16-k0 (homodimerized antibody, Ho Ab) (antibody, human IgG1, kappa)
heavy: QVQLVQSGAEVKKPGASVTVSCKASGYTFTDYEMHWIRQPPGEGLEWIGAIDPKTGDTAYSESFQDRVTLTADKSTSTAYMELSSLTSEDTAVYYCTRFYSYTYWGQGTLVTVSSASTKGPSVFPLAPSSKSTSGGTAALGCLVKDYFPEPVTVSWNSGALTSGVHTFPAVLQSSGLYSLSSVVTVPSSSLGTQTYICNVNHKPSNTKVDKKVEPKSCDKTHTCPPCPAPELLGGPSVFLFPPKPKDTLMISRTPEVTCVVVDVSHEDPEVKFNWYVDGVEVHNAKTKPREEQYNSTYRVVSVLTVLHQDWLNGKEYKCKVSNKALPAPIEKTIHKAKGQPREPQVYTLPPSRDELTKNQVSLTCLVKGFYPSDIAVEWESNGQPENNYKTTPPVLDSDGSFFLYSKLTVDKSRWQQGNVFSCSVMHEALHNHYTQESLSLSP
light: DIVMTQSPLSLPVTPGEPASISCQASESLVHSNRNTYLHWYLQKPGQSPQLLIYKVSNRFSGVPDRFSGSGSGTDFTLKISRVEAEDVGVYYCSQNTHVPPTFGQGTKVEIERTVAAPSVFIFPPSDEQLKSGTASVVCLLNNFYPREAKVQWKVDNALQSGNSQESVTEQDSKDSTYSLSSTLTLSKADYEKHKVYACEVTHQGLSSPVTKSFNRGEC
notes: Mutation in both H chains; also called S337_16H Ho Ab
B6: GpH7-B3 variant Y300_08L/GpL16-k0 (homodimerized antibody, Ho Ab) (antibody, human IgG1, kappa)
heavy: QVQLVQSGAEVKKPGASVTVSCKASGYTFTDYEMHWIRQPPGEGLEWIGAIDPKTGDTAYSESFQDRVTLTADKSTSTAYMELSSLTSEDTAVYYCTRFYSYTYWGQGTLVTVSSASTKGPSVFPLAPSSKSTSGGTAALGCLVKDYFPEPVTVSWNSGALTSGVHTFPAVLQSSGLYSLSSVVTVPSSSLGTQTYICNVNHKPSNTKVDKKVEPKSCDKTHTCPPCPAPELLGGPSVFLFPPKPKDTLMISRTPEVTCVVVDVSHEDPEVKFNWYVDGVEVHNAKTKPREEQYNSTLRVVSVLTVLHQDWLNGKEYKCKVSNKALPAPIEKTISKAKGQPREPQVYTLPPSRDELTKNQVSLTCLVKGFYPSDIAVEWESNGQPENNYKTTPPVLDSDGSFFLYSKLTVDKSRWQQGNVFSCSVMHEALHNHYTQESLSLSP
light: DIVMTQSPLSLPVTPGEPASISCQASESLVHSNRNTYLHWYLQKPGQSPQLLIYKVSNRFSGVPDRFSGSGSGTDFTLKISRVEAEDVGVYYCSQNTHVPPTFGQGTKVEIERTVAAPSVFIFPPSDEQLKSGTASVVCLLNNFYPREAKVQWKVDNALQSGNSQESVTEQDSKDSTYSLSSTLTLSKADYEKHKVYACEVTHQGLSSPVTKSFNRGEC
notes: Mutation in both H chains; also called Y300_08L Ho Ab
B7: GpH7-B3 variant S324_06M/GpL16-k0 (homodimerized antibody, Ho Ab) (antibody, human IgG1, kappa)
heavy: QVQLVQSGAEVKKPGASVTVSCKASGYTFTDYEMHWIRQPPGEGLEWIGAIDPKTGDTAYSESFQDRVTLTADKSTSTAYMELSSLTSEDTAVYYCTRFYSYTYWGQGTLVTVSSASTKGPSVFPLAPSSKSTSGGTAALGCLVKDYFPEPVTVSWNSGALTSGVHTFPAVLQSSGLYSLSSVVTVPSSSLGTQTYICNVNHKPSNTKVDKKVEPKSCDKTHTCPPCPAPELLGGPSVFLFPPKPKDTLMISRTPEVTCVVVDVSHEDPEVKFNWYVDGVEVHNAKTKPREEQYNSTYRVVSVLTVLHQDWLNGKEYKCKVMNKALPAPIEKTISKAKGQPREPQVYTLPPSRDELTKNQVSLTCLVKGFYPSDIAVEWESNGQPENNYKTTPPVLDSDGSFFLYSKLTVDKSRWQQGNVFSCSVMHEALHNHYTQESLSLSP
light: DIVMTQSPLSLPVTPGEPASISCQASESLVHSNRNTYLHWYLQKPGQSPQLLIYKVSNRFSGVPDRFSGSGSGTDFTLKISRVEAEDVGVYYCSQNTHVPPTFGQGTKVEIERTVAAPSVFIFPPSDEQLKSGTASVVCLLNNFYPREAKVQWKVDNALQSGNSQESVTEQDSKDSTYSLSSTLTLSKADYEKHKVYACEVTHQGLSSPVTKSFNRGEC
notes: Mutation in both H chains; also called S324_06M Ho Ab
B8: GpH7-B3 variant T335_06M/GpL16-k0 (homodimerized antibody, Ho Ab) (antibody, human IgG1, kappa)
heavy: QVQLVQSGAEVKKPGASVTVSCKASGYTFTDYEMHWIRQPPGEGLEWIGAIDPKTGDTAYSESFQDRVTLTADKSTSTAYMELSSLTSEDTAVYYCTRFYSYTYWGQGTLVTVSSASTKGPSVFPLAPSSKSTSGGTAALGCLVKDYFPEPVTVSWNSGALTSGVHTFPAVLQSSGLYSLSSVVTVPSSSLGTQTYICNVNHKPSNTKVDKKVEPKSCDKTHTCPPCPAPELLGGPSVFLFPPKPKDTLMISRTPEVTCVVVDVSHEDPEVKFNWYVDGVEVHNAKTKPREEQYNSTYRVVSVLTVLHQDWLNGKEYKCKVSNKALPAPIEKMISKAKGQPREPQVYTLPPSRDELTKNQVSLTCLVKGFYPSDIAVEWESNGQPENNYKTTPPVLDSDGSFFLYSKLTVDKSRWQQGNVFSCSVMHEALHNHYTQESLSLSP
light: DIVMTQSPLSLPVTPGEPASISCQASESLVHSNRNTYLHWYLQKPGQSPQLLIYKVSNRFSGVPDRFSGSGSGTDFTLKISRVEAEDVGVYYCSQNTHVPPTFGQGTKVEIERTVAAPSVFIFPPSDEQLKSGTASVVCLLNNFYPREAKVQWKVDNALQSGNSQESVTEQDSKDSTYSLSSTLTLSKADYEKHKVYACEVTHQGLSSPVTKSFNRGEC
notes: Mutation in both H chains; also called T335_06M Ho Ab
B9: GpH7-A5/GpH7-B3 variant P331_15Y/GpL16-k0 (antibody, human IgG1, kappa)
heavy 1: not shown
heavy 2: not shown
light: DIVMTQSPLSLPVTPGEPASISCQASESLVHSNRNTYLHWYLQKPGQSPQLLIYKVSNRFSGVPDRFSGSGSGTDFTLKISRVEAEDVGVYYCSQNTHVPPTFGQGTKVEIERTVAAPSVFIFPPSDEQLKSGTASVVCLLNNFYPREAKVQWKVDNALQSGNSQESVTEQDSKDSTYSLSSTLTLSKADYEKHKVYACEVTHQGLSSPVTKSFNRGEC
notes: heterodimerized IgG1; alteration in the GpH7-B3 H chain only; also called He Ab
B10: GpH7-A5/GpH7-B3 variant S324_06M/GpL16-k0 (antibody, human IgG1, kappa)
heavy 1: not shown
heavy 2: not shown
light: DIVMTQSPLSLPVTPGEPASISCQASESLVHSNRNTYLHWYLQKPGQSPQLLIYKVSNRFSGVPDRFSGSGSGTDFTLKISRVEAEDVGVYYCSQNTHVPPTFGQGTKVEIERTVAAPSVFIFPPSDEQLKSGTASVVCLLNNFYPREAKVQWKVDNALQSGNSQESVTEQDSKDSTYSLSSTLTLSKADYEKHKVYACEVTHQGLSSPVTKSFNRGEC
notes: as for B9

The target in one test is T2, FcγRIIIa extracellular domain with C-terminal His tag (human, UniProt P08637 17-208).
T2 construct: extracellular domain; also called 3a; FcgRIIIa
T2 sequence (P08637 17-208): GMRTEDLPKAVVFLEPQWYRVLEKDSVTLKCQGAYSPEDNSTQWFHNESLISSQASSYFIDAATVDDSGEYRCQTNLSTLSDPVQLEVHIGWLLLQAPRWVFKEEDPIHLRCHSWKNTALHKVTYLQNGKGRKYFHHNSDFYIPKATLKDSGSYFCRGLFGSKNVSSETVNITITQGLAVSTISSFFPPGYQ
The test is described as follows: SPR (Biacore), antibody captured on antigen-peptide chip, FcγR analyte, relative binding. (Surface plasmon resonance follows binding to a sensor surface in real time, without labels.)
B1: the Ho/Con_3a is 101 % of GpH7-B3/GpL16-k0 (=100).
B2: the Ho/Con_3a is 114 % of GpH7-B3/GpL16-k0 (=100).
The same measure, in the same setting: then B3, with 119 % of GpH7-B3/GpL16-k0 (=100).
Still for that read-out and setting: in the case of B4 it was 103 % of GpH7-B3/GpL16-k0 (=100); in that of B5, 112 % of GpH7-B3/GpL16-k0 (=100); in that of B6, 105 % of GpH7-B3/GpL16-k0 (=100).
As to B7, the Ho/Con_3a was 114 % of GpH7-B3/GpL16-k0 (=100).
On the same count and under the same terms, in the case of B8 it was 107 % of GpH7-B3/GpL16-k0 (=100).

A further test deals with T3, FcγRIa (human, UniProt P12314 16-292).
T3 construct: extracellular domain; also called FcgRI; 1a; not shown: His tag at the C terminus
T3 sequence (P12314 16-292): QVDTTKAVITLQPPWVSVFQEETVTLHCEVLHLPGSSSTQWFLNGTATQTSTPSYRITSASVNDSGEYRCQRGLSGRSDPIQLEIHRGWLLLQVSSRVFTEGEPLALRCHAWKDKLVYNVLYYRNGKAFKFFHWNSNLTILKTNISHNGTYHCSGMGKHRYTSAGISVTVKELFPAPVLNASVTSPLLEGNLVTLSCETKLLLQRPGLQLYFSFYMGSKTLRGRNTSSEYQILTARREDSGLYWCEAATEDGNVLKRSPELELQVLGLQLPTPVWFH
Nature of the test: SPR (Biacore), antibody captured, FcγR as analyte; binding as % of GpH7-A5/GpH7-B3/GpL16-k0.
For the molecule B9, the He/Con_1a is 96 % of control.
Turning to B10, the He/Con_1a was 99.2 % of control.

In a further test the target is T1, FcγRIIb. The test is described as above.
Take B9: the He/Con_2b was 114 % of control.
On to B10, for which the He/Con_2b is 112 % of control.

These data come from patent US20180155451A1 (published 2018).
